The record followed here is US20040170619, “Gene regulation” (published 2004).

Data set [1] has as its target TNFR1-4-2 six-zinc-finger DNA-binding domain (synthetic construct). The data set can be described thus: ELONA; high affinity and specificity; 50 uM ZnCl2, PBS pH 7.0, 10 nM site, salmon sperm competitor DNA, room temperature. As to conditions: may carry C-terminal NLS-KOX1-c-myc in the ELISA construct; label: biotin. How it is done: (§1) DNA binding reactions contain the appropriate zinc finger peptide, biotinylated binding site (10 nM) and 5 μg competitor DNA (sonicated salmon sperm DNA), in a total volume of 50 μl, which contained: 1×PBS (pH 7.0), 1.25×10⁻³ U high affinity anti-HA-Peroxidase antibody (Boehringer Mannheim), 50 μM ZnCl₂, 0.01 mg/ml BSA, and 0.5% Tween 20. Incubations are performed at room temperature for 40 minutes. Black streptavidin-coated wells are blocked with 4% marvel for 1 hour. Binding reactions are added to the streptavidin-coated wells and incubated for a further 40 minutes at room temperature. Wells are washed 5 times in 100 μl wash buffer (1×PBS (pH 7.0), 50 µM ZnCl₂, 0.01 mg/ml BSA, and 0.5% Tween 20), and finally 50 μl QuantaBlu peroxidase substrate solution (Pierce) is added to detect bound HA-tagged zinc finger peptide. ELISA signals are read in a SPECTRAmax GeminiXS spectrophotometer (Molecular Devices) and analysed using SOFTmax Pro 3.1.2 (Molecular Devices).
In general terms: An ELISA detects its analyte on a solid surface through an enzyme-linked reagent.

The target of data set [2] is EPOb-a-VP64 six-zinc-finger activator (synthetic construct). As to the kind of experiment: ELONA; binds tightly and specifically; 50 uM ZnCl2, PBS pH 7.0, salmon sperm competitor DNA; values only in figure. As to conditions: tags: SV40 NLS, VP64, c-myc 9E10, C-terminal HA for ELISA; label: biotin. As for the experimental part:
as §1

Chain of TNFR1-4-2 six-zinc-finger DNA-binding domain (synthetic construct) (chain, as listed by the source): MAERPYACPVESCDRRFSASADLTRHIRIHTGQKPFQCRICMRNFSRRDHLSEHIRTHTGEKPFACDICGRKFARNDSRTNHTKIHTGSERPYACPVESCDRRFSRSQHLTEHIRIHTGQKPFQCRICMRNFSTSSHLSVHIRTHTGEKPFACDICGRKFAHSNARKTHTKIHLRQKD

B1: TNFR1-4-2 target site (dsDNA)
DNA 1: GTCGGATTGGTGGGTTGGGGGCACAAGGCA
DNA 2: TGCCTTGTGCCCCCAACCCACCAATCCGAC
In the case of B1, the binding result in data set [1] is given as “binds”.

B2: EPO B-A target site (dsDNA)
DNA 1: TCTGGGGTGGGGGCTGGG
DNA 2: CCCAGCCCCCACCCCAGA
As for B2, the binding result in data set [2] was “binds”.
